Data on 1 substance can be found in PMC5528828.

The test addresses MAK33 VL S20N (murine). Briefly: negative-stain transmission electron microscopy; non-fibrillar oligomers; 50 uM monomer, 25 mM acetic acid, 25 mM phosphoric acid, 50 mM NaCl, pH 2, room temperature, quiescent; number of monomers estimated from the mean particle diameter.

Regarding MAK33 VL S20N (domain or fragment), the stoichiometry N (monomers per oligomer) is 30.
